In PMC7864924, “Structures of active-state orexin receptor 2 rationalize peptide and small-molecule agonist recognition and receptor activation” (Nature Communications, 2021):

B1: 18 (VHH)
VHH: QVQLVESGGGLVQAGGSLRLSCAASGFPVNTAHMYWYRQAPGKEREWVAAIASSGDMTLYADSVKGRFTISRDNAKNTVYLQMNSLKPEDTAVYYCNVKDWGWWYVAYDYWGQGTQVTVS
B2: 19 (VHH)
VHH: QVQLVESGGGLVQAGGSLRLSCAASGFPVMENTMYWYRQAPGKEREWVAAIDSYGYYTYYADSVKGRFTISRDNAKNTVYLQMNSLKPEDTAVYYCNVKDVGDHWWFYDYWGQGTQVTVS
B3: 4 (VHH)
VHH: QVQLVESGGGSVQAGGSLRLSCAASGAINHIWYLGWFRQAPGKEREGVAALYTWTGWTYYADSVKGRFTVSLDNAKNTVYLQMNSLKPEDTALYYCAAAYFGFASPLRARRYEYWGQGTQVTVS
B4: 8 (VHH)
VHH: QVQLVESGGGLVQAGGSLRLSCAASGFPVKHREMYWYRQAPGKEREWVAAIVSKGNVTEYADSVKGRFTISRDNAKNTVYLQMNSLKPEDTAVYYCNVKDYGWWNAHYDYWGQGTQVTVS
B5: 14 (VHH)
VHH: QVQLVESGGGLVQAGGSLRLSCAASGFPVKHRHMYWYRQAPGKEREWVAAIASNGHRTEYADSVKGRFTISRDNAKNTVYLQMNSLKPEDTAVYYCNVKDYGFYLWHYDYWGQGTQVTVS
B6: 11 (VHH)
VHH: QVQLVESGGGLVQAGGSLRLSCAASGFPVAHREMFWYRQAPGKEREWVAAITSKGSQTAYADSVKGRFTISRDNAKNTVYLQMNSLKPEDTAVYYCNVKDYGWWTAVYDYWGQGTQVTVS
B7: 1 (VHH)
VHH: QVQLVESGGGSVQAGGSLRLSCAASGWIQTITYLGWFRQAPGKEREGVAALVTNEGNTYYADSVKGRFTVSLDNAKNTVYLQMNSLKPEDTALYYCAAASWGFVTPLWYYYTYWGQGTQVTVS
B8: 20 (VHH)
VHH: QVQLVESGGGLVQAGGSLRLSCAASGFPVKTNKMAWYRQAPGKEREWVAAITSYGSWTVYADSVKGRFTISRDNAKNTVYLQMNSLKPEDTAVYYCAVWVGALYIGQGTQVTVS
B9: 9 (VHH)
VHH: QVQLVESGGGLVQAGGSLRLSCAASGFPVKQHHMYWYRQAPGKEREWVAAIESGGKETRYADSVKGRFTISRDNAKNTVYLQMNSLKPEDTAVYYCNVKDWGWWWTNYDYWGQGTQVTVS
B10: 17 (VHH)
VHH: QVQLVESGGGLVQAGGSLRLSCAASGFPVVGWHMYWYRQAPGKEREWVAAINSSGKKTLYADSVKGRFTISRDNAKNTVYLQMNSLKPEDTAVYYCNVKDAGWFWYNYDYWGQGTQVTVS
B11: 16 (VHH)
VHH: QVQLVESGGGLVQAGGSLRLSCAASGFPVARWHMYWYRQAPGKEREWVAAINSTGDMTLYADSVKGRFTISRDNAKNTVYLQMNSLKPEDTAVYYCNVKDWGWYWVNYDYWGQGTQVTVS
B12: 12 (VHH)
VHH: QVQLVESGGGLVQAGGSLRLSCAASGFPVYTAYMYWYRQAPGKEREWVAAIESQGQHTIYADSVKGRFTISRDNAKNTVYLQMNSLKPEDTAVYYCNVKDWGWWWLNYDYWGQGTQVTVS
B13: 2 (VHH)
VHH: QVQLVESGGGLVQAGGSLRLSCAASGFPVYRAFMAWYRQAPGKEREWVAAIHSTGWWTHYADSVKGRFTISRDNAKNTVYLQMNSLKPEDTAVYYCHVWVGYTYIGQGTQVTVS
B14: 10 (VHH)
VHH: QVQLVESGGGLVQAGGSLRLSCAASGFPVETRHMYWYRQAPGKEREWVAAIQSEGYLTHYADSVKGRFTISRDNAKNTVYLQMNSLKPEDTAVYYCNVKDIGWLWVHYDYWGQGTQVTVS
B15: 3 (VHH)
VHH: QVQLVESGGGLVQAGGSLRLSCAASGFPVNWKSMAWYRQAPGKEREWVAAISSFGWYTEYADSVKGRFTISRDNAKNTVYLQMNSLKPEDTAVYYCWVKVGATYYGQGTQVTVS
B16: 28 (VHH)
VHH: QVQLVESGGGLVQAGGSLRLSCAASGFPVVWKTMWWYRQAPGKEREWVAAISSYGWYTEYADSVNGRFTISRDNAKNTVYLQMNSLKPEDTAVYYCAVLVGYTYEGQGTQVTVS
B17: 23 (VHH)
VHH: QVQLVESGGGLVQAGGSLRLSCAASGFPVVWKQMAWYRQAPGKEREWVAAISSWGWYTEYADSVKGRFTISRDNAKNTVYLQMNSLNPEDTAVYYCFVKVGDGYTGQGTQVTVS
B18: 29 (VHH)
VHH: QVQLVESGGGLVQAGGSLRLSCAASGFPVKWKTMAWYRQAPGKEREWVAAISSWGLYTEYADSVKGRFTISRDNAKNTVYLQMNSLKPEDSAVYYCYVGVGAGYRGQGTQVTVS
B19: 21 (VHH)
VHH: QVQLVESGGGLVQAGGSLRLSCAASGFPVKWKTMAWYRQAPGKEREWVAAISSWGLYTEYADSVKGRFTISRDNAKNTVYLQMNSLKPEDTAVYYCLVQVGVTYHGHGTQVTVS
B20: 35 (VHH)
VHH: QVQLVESGGGLVQAGGSLRLSCAASGFPVRWKSMAWYRQAPGKEREWVAAISSYGFWTEYADSVKGRFTISRDNAKNTVYLQMNSLKPEDTAVYYCIVHVGVSYRGQGTQVTVS
B21: 5 (VHH)
VHH: QVQLVESGGGSVQAGGSLRLSCAASGYISGIEYLGWFRQAPGKEREGVAALYTFEGTTYYADSVKGRFTVSLDNAKNTVYLQMNSLKPEDTALYYCAAAKYGEWGPLWFHEYWYWGQGTQVTVS
B22: 22 (VHH)
VHH: QVQLVESGGGLVQAGGSLRLSCAASGFPVYKHTMYWYRQAPGKEREWVAAINSTGAETAYADSVKGRFTISRDNAKNTVYLQMNSLKPEDTAVYYCEVYVGWFYHGQGTQVTVS
B23: 33 (VHH)
VHH: QVQLVESGGGLVQAGGSLRLSCAASGFPVDKAHMYWYRQAPGKEREWVAAIDSTGSYTHYADSVKGRFTISRDNAKNTVYLQMNSLKPEDTAVYYCEVYVGYMYHGQGTQVTVS
B24: 24 (VHH)
VHH: QVQLVESGGGLVQAGGSLRLSCAASGFPVDAYVMYWYRQAPGKEREWVAAIASQGHPTAYADPVKGRFTISRDNAKNTVYLQMNSLKPEDTAVYYCEVYVGYFYHGQGTQVTVS
B25: 32 (VHH)
VHH: QVQLVESGGGLVQAGGSLRLSCAASGFPVAEKSMYWYRQAPGKEREWVAAIASNGVLTAYADSVKGRFTISRDNAKNTVYLQMNSLKPEDTAVYYCEVYVGYFYHGQGTQVTVS
B26: 26 (VHH)
VHH: QVQLVESGGGLVQAGGSLRLSCAASGFPVAHFVMYWYRQAPGKEREWVAAISSTGYNTAYADSVKGRFTISRDNAKNTVYLQMNSLKPEDTAVYYCEVYVGYFYHGQGTQVTVS
B27: 31 (VHH)
VHH: QVQLVESGGGLVQAGGSLRLSCAASGFPVTENTMYWYRQAPGKEREWVAAITSNGSQTAYADSVKGRFTISRDNAKNTVYLQMNSLKPEDTAVYYCEVYVGYFYHGQGTQVTVS
B28: 25 (VHH)
VHH: QVQLVESGGGLVQAGGSLRLSCAASGFPVNNHVMYWYRQAPGKEREWVAAISSQGAETAYADSVKGRFTISRDNAKNTVYLQMNSLKPEDTAVYYCEVYVGYFYHGQGTQVTVS
B29: 30 (VHH)
VHH: QVQLVESGGGLVQAGGSLRLSCAASGFPVKTYTMYWYRQAPGKEREWVAAIESTGRYTAYADSVKGRFTISRDNAKNTVYLQMNSLKPEDTAVYYCEVYVGFFYHGQGTQVTVS
B30: 27 (VHH)
VHH: QVQLVESGGGLVQAGGSLRLSCAASGFPVTTRSMYWYRQAPGKEREWVAAIASNGRLTAYADSVKGRFTISRDNAKNTVYLQMNSLEPEDTAVYYCEVFVGYYYHGQGTQVTVS
B31: 34 (VHH)
VHH: QVQLVESGGGLVQAGGSLRLSCAASGFPVNNRSMYWYRQAPGKEREWVAAIASSGFTTAYADSVKGRFTISRDNAKNTVYLQMNSLKPEDTAVYYCEVVVGYWYHGQGTQVTVS
B32: 6 (VHH)
VHH: QVQLVESGGGSVQAGGSLRLSCAASGNISAIGYLGWFRQAPGKEREGVAALVTWFGKTYYADSVKGRFTVSLDNAKNTVYLQMNSLKPEDTALYYCAAATYGNKNPLTDSYYSYWGQGTQVTVS

Biological target: engineered OX2R carrying an additional amino-terminal Avi-tag, biotinylated (Homo sapiens, UniProt O43614, residues V261–A291 deleted, biotin on the Avi-tag (BirA biotin-protein ligase))

Binding result, binds:
B1
B2
B3
B4
B5
B6
B7
B8
B9
B10
B11
B12
B13
B14
B15
B16
B17
B18
B19
B20
B21
B22
B23
B24
B25
B26
B27
B28
B29
B30
B31
B32
